Experimental data taken from patent US20250215412A1 (NOVOZYMES A S, published 2025).
Where a chain is given by its changes, count along the chain named. Numbers in names are those of the source. Blank lines part the entries; values can stand above or below the binder they belong to.

Target: T1, Chryseobacterium sp-62563 deamidase polypeptide (second polypeptide, deamidase domain), wildtype (Chryseobacterium sp-62563)
T1 sequence: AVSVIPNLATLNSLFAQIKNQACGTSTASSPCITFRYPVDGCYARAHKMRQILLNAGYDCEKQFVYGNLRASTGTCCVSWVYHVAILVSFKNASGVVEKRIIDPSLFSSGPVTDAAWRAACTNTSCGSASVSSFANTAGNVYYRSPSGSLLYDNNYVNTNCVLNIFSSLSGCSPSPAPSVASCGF
Test: cell-based or functional assay

Leakage activity: 0% | Relative activity of maturated deamidase (% initial rate): 60
B1: Chryseobacterium sp-62563 propeptide Y94I (protein)
chain: NQDPNLVAKESNETAMKDFGKTVPVGIEKEDGKFKISFMVTAQPYEIKDSKENAAYISMIKTAVENETPIHVFLKANTNEIAKVDKATDDDIRIFKSVFTKEVKEENRK

Relative activity of maturated deamidase (% initial rate): 98
B2: Chryseobacterium sp-62563 propeptide V98S (protein)
chain: B1 chain with I94Y, V98S

Leakage activity: 9% | Relative activity of maturated deamidase (% initial rate): 69
B3: Chryseobacterium sp-62563 propeptide F99D (protein)
chain: B1 chain with I94Y, F99D

NanoDSF thermal unfolding temperature: 76.4 ° C. | Relative activity of maturated deamidase (% initial rate): > 100
B4: Chryseobacterium sp-62563 propeptide Y45I (protein)
chain: B1 chain with Y45I, I94Y

Leakage activity: 0% | Relative activity of maturated deamidase (% initial rate): > 100
B5: Chryseobacterium sp-62563 propeptide Y94T (protein)
chain: B1 chain with I94T

Relative activity of maturated deamidase (% initial rate): > 100
B6: Chryseobacterium sp-62563 propeptide V98Q (protein)
chain: B1 chain with I94Y, V98Q

Relative activity of maturated deamidase (% initial rate): 54
B7: Chryseobacterium sp-62563 propeptide V98H (protein)
chain: B1 chain with I94Y, V98H

Relative activity of maturated deamidase (% initial rate): > 100
B8: Chryseobacterium sp-62563 propeptide V98N (protein)
chain: B1 chain with I94Y, V98N

Relative activity of maturated deamidase (% initial rate): 33
B9: Chryseobacterium sp-62563 propeptide F99I (protein)
chain: B1 chain with I94Y, F99I

NanoDSF thermal unfolding temperature: 79 ° C. | Relative activity of maturated deamidase (% initial rate): 40
B10: Chryseobacterium sp-62563 propeptide Y45M (protein)
chain: B1 chain with Y45M, I94Y

Relative activity of maturated deamidase (% initial rate): > 100
B11: Chryseobacterium sp-62563 propeptide V98K (protein)
chain: B1 chain with I94Y, V98K

Leakage activity: 0% | Relative activity of maturated deamidase (% initial rate): 76
B12: Chryseobacterium sp-62563 propeptide F99R (protein)
chain: B1 chain with I94Y, F99R

NanoDSF thermal unfolding temperature: 78.1 ° C.
B13: Chryseobacterium sp-62563 propeptide Y45R (protein)
chain: B1 chain with Y45R, I94Y

Leakage activity: 4% | NanoDSF thermal unfolding temperature: 75.4 ° C. | Relative activity of maturated deamidase (% initial rate): > 100
B14: Chryseobacterium sp-62563 propeptide F99K (protein)
chain: B1 chain with I94Y, F99K

Leakage activity: 0% | Relative activity of maturated deamidase (% initial rate): 31
B15: Chryseobacterium sp-62563 propeptide V98Y (protein)
chain: B1 chain with I94Y, V98Y

Relative activity of maturated deamidase (% initial rate): > 100
B16: Chryseobacterium sp-62563 propeptide F99V (protein)
chain: B1 chain with I94Y, F99V

NanoDSF thermal unfolding temperature: 70.6 ° C. | Relative activity of maturated deamidase (% initial rate): 82
B17: Chryseobacterium sp-62563 propeptide P69D (protein)
chain: B1 chain with P69D, I94Y

Relative activity of maturated deamidase (% initial rate): 46
B18: Chryseobacterium sp-62563 propeptide F99L (protein)
chain: B1 chain with I94Y, F99L

Relative activity of maturated deamidase (% initial rate): 41
B19: Chryseobacterium sp-62563 propeptide V98M (protein)
chain: B1 chain with I94Y, V98M

Relative activity of maturated deamidase (% initial rate): 81
B20: Chryseobacterium sp-62563 propeptide F99W (protein)
chain: B1 chain with I94Y, F99W

Leakage activity: 3% | NanoDSF thermal unfolding temperature: 75.2 ° C. | Relative activity of maturated deamidase (% initial rate): 76
B21: Chryseobacterium sp-62563 propeptide Y94P (protein)
chain: B1 chain with I94P

Relative activity of maturated deamidase (% initial rate): 85
B22: Chryseobacterium sp-62563 propeptide F99Y (protein)
chain: B1 chain with I94Y, F99Y

Leakage activity: 7% | Relative activity of maturated deamidase (% initial rate): 44
B23: Chryseobacterium sp-62563 propeptide F95D (protein)
chain: B1 chain with I94Y, F95D

Leakage activity: 2% | Relative activity of maturated deamidase (% initial rate): > 100
B24: Chryseobacterium sp-62563 propeptide V98P (protein)
chain: B1 chain with I94Y, V98P

Leakage activity: 0% | Relative activity of maturated deamidase (% initial rate): 91
B25: Chryseobacterium sp-62563 propeptide F95G (protein)
chain: B1 chain with I94Y, F95G

Relative activity of maturated deamidase (% initial rate): > 100
B26: Chryseobacterium sp-62563 propeptide V98G (protein)
chain: B1 chain with I94Y, V98G

Relative activity of maturated deamidase (% initial rate): 33
B27: Chryseobacterium sp-62563 propeptide F99P (protein)
chain: B1 chain with I94Y, F99P

NanoDSF thermal unfolding temperature: 79.1 ° C. | Relative activity of maturated deamidase (% initial rate): 67
B28: Chryseobacterium sp-62563 propeptide P69M (protein)
chain: B1 chain with P69M, I94Y

Relative activity of maturated deamidase (% initial rate): > 100
B29: Chryseobacterium sp-62563 propeptide V98R (protein)
chain: B1 chain with I94Y, V98R

NanoDSF thermal unfolding temperature: 81.5 ° C. | Relative activity of maturated deamidase (% initial rate): 43
B30: Chryseobacterium sp-62563 propeptide P69L (protein)
chain: B1 chain with P69L, I94Y

Leakage activity: 0%
B31: Chryseobacterium sp-62563 propeptide Y94Q (protein)
chain: B1 chain with I94Q

NanoDSF thermal unfolding temperature: 77 ° C. | Relative activity of maturated deamidase (% initial rate): 35
B32: Chryseobacterium sp-62563 propeptide P69G (protein)
chain: B1 chain with P69G, I94Y

Relative activity of maturated deamidase (% initial rate): 70
B33: Chryseobacterium sp-62563 propeptide V98T (protein)
chain: B1 chain with I94Y, V98T

Leakage activity: 4% | Relative activity of maturated deamidase (% initial rate): 48
B34: Chryseobacterium sp-62563 propeptide F99Q (protein)
chain: B1 chain with I94Y, F99Q

Relative activity of maturated deamidase (% initial rate): > 100
B35: Chryseobacterium sp-62563 propeptide F99H (protein)
chain: B1 chain with I94Y, F99H

Leakage activity: 0% | Relative activity of maturated deamidase (% initial rate): 52
B36: Chryseobacterium sp-62563 propeptide F99C (protein)
chain: B1 chain with I94Y, F99C
